B1: Metallothionein expression activator (Saccharomyces cerevisiae), P21192 (parent)
chain: MDNVVDPWYINPSGFAKDTQDEEYVQHHDNVNPTIPPPDNYILNNENDDGLDNLLGMDYYNIDDLLTQELRDLDIPLVPSPKTGDGSSDKKNIDRTWNLGDENNKVSHYSKKSMSSHKRGLSGTAIFGFLGHNKTLSISSLQQSILNMSKDPQPMELINELGNHNTVKNNNDDFDHIRENDGENSYLSQVLLKQQEELRIALEKQKEVNEKLEKQLRDNQIQQEKLRKVLEEQEEVAQKLVSGATNSNSKPGSPVILKTPAMQNGRMKDNAIIVTTNSANGGYQFPPPTLISPRMSNTSINGSPSRKYHRQRYPNKSPESNGLNLFSSNSGYLRDSELLSFSPQNYNLNLDGLTYNDHNNTSDKNNNDKKNSTGDNIFRLFEKTSPGGLSISPRINGNSLRSPFLVGTDKSRDDRYAAGTFTPRTQLSPIHKKRESVVSTVSTISQLQDDTEPIHMRNTQNPTLRNANALASSSVLPPIPGSSNNTPIKNSLPQKHVFQHTPVKAPPKNGSNLAPLLNAPDLTDHQLEIKTPIRNNSHCEVESYPQVPPVTHDIHKSPTLHSTSPLPDEIIPRTTPMKITKKPTTLPPGTIDQYVKELPDKLFECLYPNCNKVFKRRYNIRSHIQTHLQDRPYSCDFPGCTKAFVRNHDLIRHKISHNAKKYICPCGKRFNREDALMVHRSRMICTGGKKLEHSINKKLTSPKKSLLDSPHDTSPVKETIARDKDGSVLMKMEEQLRDDMRKHGLLDPPPSTAAHEQNSNRTLSNETDAL
B2: Serine/threonine-protein kinase CBK1 (Saccharomyces cerevisiae), P53894 (parent)
chain: MYNSSTNHHEGAPTSGHGYYMSQQQDQQHQQQQQYANEMNPYQQIPRPPAAGFSSNYMKEQGSHQSLQEHLQRETGNLGSGFTDVPALNYPATPPPHNNYAASNQMINTPPPSMGGLYRHNNNSQSMVQNGNGSGNAQLPQLSPGQYSIESEYNQNLNGSSSSSPFHQPQTLRSNGSYSSGLRSVKSFQRLQQEQENVQVQQQLSQAQQQNSRQQQQQLQYQQQQQQQQQQQHMQIQQQQQQQQQQQQSQSPVQSGFNNGTISNYMYFERRPDLLTKGTQDKAAAVKLKIENFYQSSVKYAIERNERRVELETELTSHNWSEERKSRQLSSLGKKESQFLRLRRTRLSLEDFHTVKVIGKGAFGEVRLVQKKDTGKIYAMKTLLKSEMYKKDQLAHVKAERDVLAGSDSPWVVSLYYSFQDAQYLYLIMEFLPGGDLMTMLIRWQLFTEDVTRFYMAECILAIETIHKLGFIHRDIKPDNILIDIRGHIKLSDFGLSTGFHKTHDSNYYKKLLQQDEATNGISKPGTYNANTTDTANKRQTMVVDSISLTMSNRQQIQTWRKSRRLMAYSTVGTPDYIAPEIFLYQGYGQECDWWSLGAIMYECLIGWPPFCSETPQETYRKIMNFEQTLQFPDDIHISYEAEDLIRRLLTHADQRLGRHGGADEIKSHPFFRGVDWNTIRQVEAPYIPKLSSITDTRFFPTDELENVPDSPAMAQAAKQREQMTKQGGSAPVKEDLPFIGYTYSRFDYLTRKNAL
partner: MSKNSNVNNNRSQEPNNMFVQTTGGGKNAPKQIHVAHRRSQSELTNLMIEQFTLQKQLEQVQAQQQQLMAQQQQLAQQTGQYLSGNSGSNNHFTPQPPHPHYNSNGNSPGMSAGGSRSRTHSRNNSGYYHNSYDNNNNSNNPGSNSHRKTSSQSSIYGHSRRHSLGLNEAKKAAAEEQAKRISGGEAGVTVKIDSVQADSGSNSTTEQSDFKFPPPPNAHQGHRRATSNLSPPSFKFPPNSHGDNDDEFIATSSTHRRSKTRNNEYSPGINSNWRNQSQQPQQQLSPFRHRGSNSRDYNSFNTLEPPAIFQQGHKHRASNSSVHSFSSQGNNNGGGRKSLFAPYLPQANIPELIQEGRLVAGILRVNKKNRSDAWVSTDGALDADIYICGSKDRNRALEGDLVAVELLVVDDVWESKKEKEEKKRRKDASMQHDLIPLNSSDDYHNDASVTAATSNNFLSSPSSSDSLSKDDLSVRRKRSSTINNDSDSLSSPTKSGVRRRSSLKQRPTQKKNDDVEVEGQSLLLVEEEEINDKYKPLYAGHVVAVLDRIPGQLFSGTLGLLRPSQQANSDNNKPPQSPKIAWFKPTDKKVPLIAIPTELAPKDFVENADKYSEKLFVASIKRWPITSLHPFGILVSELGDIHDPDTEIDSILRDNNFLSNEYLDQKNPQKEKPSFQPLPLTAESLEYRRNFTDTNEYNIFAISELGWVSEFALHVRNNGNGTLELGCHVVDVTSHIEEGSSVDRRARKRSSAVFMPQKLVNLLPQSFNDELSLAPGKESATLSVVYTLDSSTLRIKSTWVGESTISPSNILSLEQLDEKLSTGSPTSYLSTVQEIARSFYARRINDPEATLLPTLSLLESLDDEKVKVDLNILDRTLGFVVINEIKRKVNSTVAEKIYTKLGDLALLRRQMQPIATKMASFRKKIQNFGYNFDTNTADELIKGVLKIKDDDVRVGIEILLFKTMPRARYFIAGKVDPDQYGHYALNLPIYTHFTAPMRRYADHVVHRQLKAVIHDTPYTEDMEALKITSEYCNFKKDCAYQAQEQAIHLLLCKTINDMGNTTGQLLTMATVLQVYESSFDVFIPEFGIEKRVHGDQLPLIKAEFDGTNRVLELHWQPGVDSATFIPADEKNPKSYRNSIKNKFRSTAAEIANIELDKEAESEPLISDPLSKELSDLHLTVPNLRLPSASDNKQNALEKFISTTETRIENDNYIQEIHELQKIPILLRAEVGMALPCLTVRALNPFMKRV
B3: Protein SSD1 (Saccharomyces cerevisiae), P24276 (parent)
chain: B2 partner

Variants of: B1
Settings: with cbk1_yeast CBK1, P53894

| effect of a mutation on the interaction | Variant |
| --- | --- |
| decreasing interaction strength | N277A |
| decreasing interaction strength | I272A |
| disrupting interaction strength | P286A |
| disrupting interaction strength | Y283A |
| disrupting interaction strength | F285A |

Variants of: B2
Settings: with ssd1_yeast SSD1, P24276

| effect of a mutation on the interaction | Variant |
| --- | --- |
| disrupting interaction strength | Y687A |

Variants of: B3
Settings: with cbk1_yeast CBK1, P53894

| effect of a mutation on the interaction | Variant |
| --- | --- |
| disrupting interaction strength | F213W |
| disrupting interaction strength | F213Y |
| disrupting interaction strength | F213A |
| disrupting interaction strength | F211A |
| disrupting interaction strength | F211W |
| disrupting interaction strength | K212F |
| disrupting interaction strength | K212Q |
| disrupting interaction strength | K212T |
| disrupting interaction strength | K212D |
| disrupting interaction strength | K212M |
| disrupting interaction strength | K212A |
| disrupting interaction strength | K212S |
| disrupting interaction strength | P214A |
